{"source": "paper PMC9599074", "about": "“Integration of Power-Free and Self-Contained Microfluidic Chip with Fiber Optic Particle Plasmon Resonance Aptasensor for Rapid Detection of SARS-CoV-2 Nucleocapsid Protein”", "binders": {"B1": {"name": "NP-A48 (ssDNA)", "DNA": "GCTGGATGTCGCTTACGACAATATTCCTTAGGGGCACCGCTACATTGACACATCCAGC", "modifications": "terminal amine (end not stated), coupled to carboxyl AuNP"}, "B2": {"name": "NP-A61 (ssDNA)", "DNA": "GCTGGATGTTGACCTTTACAGATCGGATTCTGTGGGGCGTTAAACTGACACATCCAGC", "modifications": "terminal amine (end not stated), coupled to carboxyl AuNP"}}, "target": "SARS-CoV-2 nucleocapsid protein (N-protein) (SARS-CoV-2, UniProt P0DTC9 1-419)", "test": "FOPPR biosensor kinetics; 1x PBS pH 7.4, […]; temperature not stated", "conditions": "protein: commercial; chain copies: 2", "data": [{"binder": "B1", "values": [{"measurement": "Kd", "result": 2.63, "unit": "nM"}]}, {"binder": "B2", "values": [{"measurement": "Kd", "result": 5.02, "unit": "nM"}]}]}
